Measured values reported in patent US20210206849A1 (UNIVERSITY OF CONNECTICUT, published 2021).
Each block holds one binder with its values, some of them ahead of it.

Legend:
[1] = molecular target: T1, mouse CD28 on transfected HEK-293 cells (mouse, UniProt P31041 20-218); experiment: flow cytometry, biotinylated Skint8-Ig and streptavidin-PE on transfected HEK-293 cells
T1 construct: whole, on cells
T1 sequence (looked up): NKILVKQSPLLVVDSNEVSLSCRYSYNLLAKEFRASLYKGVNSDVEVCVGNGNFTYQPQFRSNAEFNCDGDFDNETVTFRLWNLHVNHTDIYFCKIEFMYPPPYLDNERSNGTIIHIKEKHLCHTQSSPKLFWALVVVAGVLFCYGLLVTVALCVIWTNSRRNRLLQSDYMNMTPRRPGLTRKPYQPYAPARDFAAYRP
Experimental: (§1) FIG. 15. The expression pattern of the Skint8 putative receptor. (A, B) Spleen cells were harvested from C57BL/6 mice. To obtain activated T cells, the spleen cells were incubated with anti-CD3 (1 μg/ml) and anti-CD28 (0.5 μg/ml) antibodies for 3 days. To obtain activated B cells, monocytes and DCs, the spleen cells were incubated with LPS (10 μg/ml) for 3 days. The freshly harvested and activated immune cells were stained with biotinylated Skint8-Ig or control Ig, followed by streptavidin-PE, as well as anti-CD4, CD8, B220, CD11b, or CD11c antibodies to identify the immune cells. (A) Representative flow cytometric profiles and (B) Statistical analysis showing the binding of Skint8-Ig or control Ig to freshly harvested and activated immune cells. (B) Data are presented as relative fluorescence intensity (RFI) for cell binding of Skint8-Ig versus control Ig. (C) HEK-293 cells were transfected with an expression vector containing the murine PD-, CD28, BTLA, CTLA-4, or ICOS gene and screened for cells stably expressing each gene. The transfected cells were stained with antibody against the respective PD-1, CD28, BTLA, CTLA-4, or ICOS protein (open histograms) or isotype antibody (shaded histograms). Representative flow cytometric profiles showing the expression of each receptor. (D) PD-, CD28, BTLA, CTLA-4, or ICOS gene-transfected HEK-293 cells were stained with biotinylated Skint8-Ig or control Ig, followed by streptavidin-PE. Representative flow cytometric profiles showing the binding of Skint8-Ig (open histograms) or control Ig protein (shaded histograms) to the transfected cells. The data are representative of 3 independent experiments.
(§2) Single cell suspensions of organs were stained with the fluorochrome-conjugated antibodies protein as described (38-41). Direct or indirect staining of fluorochrome-conjugated antibodies included: CD4, CD8, B220, CD11c, CD11b, F4/80, CD69, CD44, CD62L, IFNγ, TNFα, IL-2, IL-10, CD28, CTLA-4, PD-1, BTLA, and ICOS (BioLegend, or BD Biosciences, San Jose, Calif., San Diego, Calif.). Skint8-g, Skint8 IgV-Ig or Skint8 IgC-Ig proteins were biotinylated with sulfo-NHS-LC-Biotin (Pierce) and detected by streptavidin-PE. The samples were analyzed on a FACSCalibur or LSRFortessa X-20 Cell Analyzer (BD Biosciences). Data analysis was done using FlowJo software (Ashland, Oreg.).

[2] = molecular target: T2, mouse PD-1 on transfected HEK-293 cells (mouse, UniProt Q02242 25-288); experiment: as above
T2 construct: whole, on cells
T2 sequence (looked up): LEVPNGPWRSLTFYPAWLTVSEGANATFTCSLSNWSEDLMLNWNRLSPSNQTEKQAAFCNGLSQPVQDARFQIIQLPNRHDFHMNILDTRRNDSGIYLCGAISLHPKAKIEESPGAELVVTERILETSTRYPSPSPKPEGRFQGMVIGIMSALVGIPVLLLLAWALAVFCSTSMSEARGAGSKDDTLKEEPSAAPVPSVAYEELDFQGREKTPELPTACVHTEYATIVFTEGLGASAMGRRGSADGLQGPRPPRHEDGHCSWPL
Experimental: as §1, §2

[3] = molecular target: T3, mouse CTLA-4 on transfected HEK-293 cells (mouse, UniProt P09793 36-223); experiment: as above
T3 construct: whole, on cells
Experimental: as §1, §2

[4] = molecular target: T4, mouse ICOS on transfected HEK-293 cells (mouse, UniProt Q9WVS0 21-200); experiment: as above
T4 construct: whole, on cells
T4 sequence (looked up): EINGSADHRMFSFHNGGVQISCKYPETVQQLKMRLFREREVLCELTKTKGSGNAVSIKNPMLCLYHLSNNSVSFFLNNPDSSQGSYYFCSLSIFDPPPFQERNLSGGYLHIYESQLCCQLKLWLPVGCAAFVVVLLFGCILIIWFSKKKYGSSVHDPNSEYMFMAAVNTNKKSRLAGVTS
Experimental: as §1, §2

[5] = molecular target: T5, mouse BTLA on transfected HEK-293 cells (mouse, UniProt Q7TSA3 30-306); experiment: as above
T5 construct: whole, on cells
T5 sequence (looked up): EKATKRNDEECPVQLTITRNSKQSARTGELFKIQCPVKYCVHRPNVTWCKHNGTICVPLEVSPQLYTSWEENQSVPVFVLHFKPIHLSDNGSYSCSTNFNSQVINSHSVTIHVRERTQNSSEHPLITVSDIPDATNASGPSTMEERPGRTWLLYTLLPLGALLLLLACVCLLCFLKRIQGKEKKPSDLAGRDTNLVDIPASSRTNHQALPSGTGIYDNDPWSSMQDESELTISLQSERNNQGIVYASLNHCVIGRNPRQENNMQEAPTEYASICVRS
Experimental: as §1, §2

[6] = molecular target: T6, Control Ig (recombinant mouse IgG2a Fc protein) (mouse, UniProt P01863 98-330 = IgG part, limits assumed); experiment: ELISA screen of hybridomas
T6 construct: domain: Fc; Bought control protein; also called control mouse IgG2a Fc; control Ig protein

[7] = molecular target: T7, Human CD300c-Ig fusion protein (human); experiment: ELISA screen of hybridomas
T7 construct: also called hCD300c-Ig; hCD300-Ig
T7 chain: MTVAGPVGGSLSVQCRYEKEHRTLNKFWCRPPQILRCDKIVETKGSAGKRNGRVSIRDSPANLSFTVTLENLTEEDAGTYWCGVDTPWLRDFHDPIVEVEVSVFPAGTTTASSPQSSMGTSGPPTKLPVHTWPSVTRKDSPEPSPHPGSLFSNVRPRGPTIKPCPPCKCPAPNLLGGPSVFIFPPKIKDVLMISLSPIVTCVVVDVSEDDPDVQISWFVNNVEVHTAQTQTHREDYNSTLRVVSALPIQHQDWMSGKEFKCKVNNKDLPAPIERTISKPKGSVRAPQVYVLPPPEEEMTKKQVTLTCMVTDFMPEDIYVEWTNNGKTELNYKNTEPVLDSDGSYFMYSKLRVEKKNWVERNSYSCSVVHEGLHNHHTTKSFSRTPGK

[8] = molecular target: T1, mouse CD28 on transfected HEK-293 cells; experiment: flow cytometry, biotinylated mCD300c2-Ig on transfected HEK-293 cells
Experimental: (§3) To determine whether mCD300c binds to molecules previously identified as receptors of the known B7 family members, HEK-293 cells were transfected with an expression vector containing the mouse CD28. CTLA4, PD-1, BTLA or ICOS gene. The expression of these receptors on the transfected 293 cells was confirmed by flow cytometric analysis with the antibodies against the respective receptors (FIG. 5C). The binding of mCD300c to the transfected HEK-293 cells was then analyzed.

[9] = molecular target: T2, mouse PD-1 on transfected HEK-293 cells; experiment: as above
Experimental: as §3

[10] = molecular target: T3, mouse CTLA-4 on transfected HEK-293 …; experiment: as above
Experimental: as §3

[11] = molecular target: T4, mouse ICOS on transfected HEK-293 cells; experiment: as above
Experimental: as §3

[12] = molecular target: T5, mouse BTLA on transfected HEK-293 cells; experiment: as above
Experimental: as §3

[13] = molecular target: T1, mouse CD28 on transfected HEK-293 cells; experiment: flow cytometry, biotinylated mBTN5-Ig and streptavidin-PE on transfected HEK-293 cells
Experimental: (§4) FIG. 20. The expression pattern of the mBTN5 putative receptor. (A) Splenocytes from C57BL/6 mice were freshly harvested and analyzed for resting immune cells. For T cell activation, splenocytes were incubated with anti-CD3 (1 μg/ml) and anti-CD28 (0.5 μg/ml) antibodies for 3 days. For the activation of B cells, DCs and monocytes, splenocytes were incubated with LPS (10 μg/ml) for 3 days. The resting and active immune cells were stained with anti-CD4, CD8, B220, CD11c, or CD11b antibodies, and biotinylated mBTN5-Ig or control Ig, followed by streptavidin-PE. Representative flow cytometric profiles showing the binding of mBTN5-Ig or control Ig to resting and activated immune cells. (B, C) HEK-293 cells were transfected with an expression vector containing murine PD-1, CD28, BTLA, CTLA-4, or ICOS gene. The transfected cells were stained with (B) antibodies against the respective PD-1, CD28, BTLA, CTLA-4, or ICOS protein, (C) biotinylated mBTN5-Ig or control Ig, followed by streptavidin-PE. Representative flow cytometric profiles showing the binding of (B) the antibodies or (C) mBTN5-Ig to the transfected cells. Representative of 3 independent experiments.

[14] = molecular target: T2, mouse PD-1 on transfected HEK-293 cells; experiment: as above
Experimental: as §4

[15] = molecular target: T3, mouse CTLA-4 on transfected HEK-293 …; experiment: as above
Experimental: as §4

[16] = molecular target: T4, mouse ICOS on transfected HEK-293 cells; experiment: as above
Experimental: as §4

[17] = molecular target: T5, mouse BTLA on transfected HEK-293 cells; experiment: as above
Experimental: as §4

B1: Mouse Skint8-Ig fusion protein (Fc fusion)
chain: EKLRVTTPTRHLLARVGGQAELSCQVIPPHSVMHMEVRWFRSGHSQPVYLYRGGHKMSEEAAPEYANRTEFVKEAIGEGKVSLRIYNINILDDGPYQCSFNDSGFIDVAIMNLNVTAVGLETEIHVQAPDADGVMVECNTGGWFPRPQMEWRDSKGATLPHSLKSYSQDEARFFHMKMTLLLTNMSHGSIICCISNPVTGEEKQTSIIPRGPTIKPCPPCKCPAPNLLGGPSVFIFPPKIKDVLMISLSPIVTCVVVDVSEDDPDVQISWFVNNVEVHTAQTQTHREDYNSTLRVVSALPIQHQDWMSGKEFKCKVNNKDLPAPIERTISKPKGSVRAPQVYVLPPPEEEMTKKQVTLTCMVTDFMPEDIYVEWTNNGKTELNYKNTEPVLDSDGSYFMYSKLRVEKKNWVERNSYSCSVVHEGLHNHHTTKSFSRTPGK
modifications: biotinylated with sulfo-NHS-LC-Biotin in the flow cytometry assays (sites not given)
notes: Made in HEK-293 cells; also called Skint8-IgG Fc
- binding result [1]: no binding
- binding result [2]: no binding
- binding result [3]: no binding
- binding result [4]: no binding
- binding result [5]: no binding

B2: anti-hCD300c mAb (clone B47-1D2) (antibody, V domains shown)
VH: QIQLVQSGPELRKPGETVKISCKASGYTFTIYGMNWMKQAPGKGLKWMGWINTYTGEPTYADDFKGRFAFSLETSASTAFLQINNLTNEDTATYFCARSRFAYWGQGTLVTVSA
VL: DIVMTQSQKFMSTSVGDRVSVTCKASQNVGTNVAWYQQKPGQSPKALIYSASYRYSGVPDRFTGSRSGTDFTLTISNVQSEDLAEYVCQQYNSYPLTFGAGTKLELK
notes: Mouse hybridoma mAb; also called anti-CD300c mAb
- binding result [6]: no binding
- binding result [7]: binds

Continued, values first:

- binding result [8]: no binding
- binding result [9]: no binding
- binding result [10]: no binding
- binding result [11]: no binding
- binding result [12]: no binding
B3: mCD300c2-Ig fusion protein (Fc fusion)
chain: CVPLHGPSTITGTVGKSLSVSCQYEEKFKTKDKFWCRGSLKVLCKDIVKTSSSEEVRNGRVTIRDHPDNLTFTVTYESLTLEDADTYMCAVDISLFDGSLGFDKYFKIELSVVPSEDPVTGSSLESGRDILESPTSSVGHTHPSVTTDDTIPTPCPQPRSLRSSLYFRVLVS
modifications: biotinylated with sulfo-NHS-LC-Biotin for flow cytometry (sites not given)
notes: Made in HEK293F cells; also called mCD300c-Ig; not shown: constant region of mouse IgG2a from the pCMV6-AC-FC-S expression vector (ORIGENE)

- binding result [6]: no binding
B4: anti-hTAPBPL mAb (clone 54) (antibody, V domains shown)
VH: DVQLQESGPGLVKPSQTLSLTCSVTGYSLTSGYFWHWIRQFPGNKLEWMGYISYSGTTNYNPSLKNRISITHDSSKNQFFLNLNSVTAEDTATYFCAGDDWDWFAYWGQGTLVTVSA
VL: ENVLTQSPAIMSASPGEKVTMTCSASSSVNYMHWYQQKSSTSPKLWIYDTSKLASGVPGRFSGSGSGNSYSLTISSMEAEDVATYYCFQGSGYPLTFGSGTKLEIK
notes: Mouse hybridoma mAb; also called anti-TAPBPL mAb

- binding result [13]: no binding
- binding result [14]: no binding
- binding result [15]: no binding
- binding result [16]: no binding
- binding result [17]: no binding
B5: mBTN5-Ig fusion protein (Fc fusion)
chain: QPPVQVLGDAGKVYIAPLRDTANLPCPLFLWPNMVLSEMRWYRPGHLPRTQAVHVFRDGQDRDEDLMPEYKGRTALVRDAHKESYILQISNVRLEDRGLYQCQVWVGNS
modifications: biotinylated with sulfo-NHS-LC-Biotin (sites not given)
notes: Made in HEK-293 cells; not shown: constant region of mouse IgG2a from the pCMV6-AC-FC-S expression vector (ORIGENE)
